Target: PfCSP junctional peptide 21 (Plasmodium falciparum) (UniProt Q7K740)
Test: BLI

CIS43 mAb
Kd: 21 nM

— doi:10.1101/2025.09.30.679617
